Legend:
[1] = system: CRC Tissue Microarray (TMA) cores; assay: CRC Tissue Microarray staining for STn with and without neuraminidase; format: binding
Excerpt: Further, a CRC Tissue Microarray (TMA) (NBP2-30214; Novus Bio, Littleton, Colo.) was stained for STn expression. The array consists of 59 cores with and without a neuraminidase (sialidase) enzyme treatment. Neuraminidase specifically cleaves terminal sialic acids and destroys STn antigen present on the tissue.

[2] = system: SW403; assay: STn expression on CRC line by flow cytometry using anti-STn antibodies; format: cell-based; conditions: detected using mSIA103
Description: (§1) Mouse antibodies were characterized for in vitro and in vivo efficacy in breast, colon and ovarian cancer models. The antibodies were used to identify CRC cell lines that express STn on the surface. Five CRC lines were incubated in vitro and grown to confluency. % STn expression was determined by flow cytometry using anti-STn antibodies. Approximately 30-70% of cultured SW403, COL0205 and LS174T cells naturally expressed STn on the surface (as detected using mSIA103), while HT29 and RKO had very little to no detectable STn (as detected using hSIA101) on their cell surface (see Table 6).

[3] = system: LS174T; assay: as above; format: cell-based; conditions: detected using mSIA103
Description: as §1

[4] = system: COLO205; assay: as above; format: cell-based; conditions: detected using mSIA103
Description: as §1

- staining on normal colon ([1]; 8 cores): restricted to crypt and surface mucosa
- staining after neuraminidase treatment ([1]; 250 mU/mL neuraminidase, all 45 positive cores): abolished
- neoplastic cores with some level of positive membrane staining ([1]; out of the 51 neoplastic cores on the TMA): 45
B1: mSIA103: mouse IgG2a anti-STn antibody, VH SEQ ID NO: 5, VL SEQ ID NO: 6; variable domains from 3F1 IgG1 antibodies (antibody, V domains shown)
VH: QVQLQQSDAELVKPGASVKISCKASGYTFTDHAIHWVKQKPEQGLDWIGYISPGNGDIKYNEKFKDKVTLTADKSSSTACMHLNSLTSEDSAVYFCKRSLLALDYWGQGTTLTVSS
VL: DIVMTQSHKFMSTSVGDRVSITCKASQDVGTNIAWYQQKPGRSPKVLIYSASTRHTGVPDRFTGSGSGTDFTLTISNVQSEDLTDYFCQQYSSFPLTFGVGTKLELK
modifications: mouse IgG2a constant regions
notes: variable domains from 3F1 IgG1 antibodies
- % STn expression [2]: 30.0%
- % STn expression [3]: 69.9%
- % STn expression [4]: 67.7%
